Test results taken from patent US12492252 (SHANDONG BOAN BIOTECHNOLOGY, dated 2025).

How the values were obtained:
[1] = target: T1, human GPC3 on cells (HepG2 cells expressing full length human GPC3; GPC3-transfected HEK293T cells) (human, UniProt P51654 25-554); assay: flow cytometry on HepG2 cells
T1 construct: whole, on cells; also called GPC3-expressing HepG2 tumor cells

[2] = target: T2, full length human GPC3 His (human, UniProt P51654 25-559, limits assumed); assay: SPR (Biacore T200), full length human GPC3 His immobilised, IgG1 in solution
T2 construct: also called full length human GPC3 protein; not shown: His tag

[3] = target: T3, human GPC3 protein (human, UniProt P51654 25-559); assay: screening of recombinantly expressed rabbit clones (before the change to human constant regions)
T3 construct: also called GPC3 antigen; human GPC3 proteins

[4] = target: T4, C-terminal fragment of the full length human GPC3 protein (human, UniProt P51654 359-554); assay: ELISA
T4 construct: domain: C-terminal subunit (C-terminal fragment); also called C-terminal of GPC3; 30-kDa C-terminal subunit
T4 sequence (looked up): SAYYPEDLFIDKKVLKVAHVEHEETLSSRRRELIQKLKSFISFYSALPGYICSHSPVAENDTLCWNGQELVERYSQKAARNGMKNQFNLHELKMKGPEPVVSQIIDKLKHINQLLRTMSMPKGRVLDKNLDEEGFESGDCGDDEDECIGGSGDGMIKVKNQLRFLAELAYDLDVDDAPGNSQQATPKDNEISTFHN

B1: anti-human GPC3 IgG1 antibody clone 74 (antibody, V domains shown)
VH: QCQSVEESGGRLVTPGTPLTLTYTVSGFSLNNYDMSWVRQAPGKGLQYIGWINSGGTAYYASWAKGRFTISKTSSTTVDLKMTSPTTEDTATYFCARHRYGYYGDIWGPGTLVTVSL
VL: DPVLTQTPSSVSAAVGGTVTINCQSSQNVYNNNRLAWYQQKLGQPPKLLIYFASKLASGVPSRFSGSGSGTQFTLTISGVQCDDAATYYCAGGYNTIVDNGFGGGTEVVVKR
- EC50 [1]: 0.0042 nM
- HepG2 Cell binding (Fold ratio) [1]: 143 fold
- Kd [2]: 0.02 nM
- RuMax [2]: 24.3
- koff [2]: 0.00034 s⁻¹

B2: anti-human GPC3 IgG1 antibody clone 2 (antibody, V domains shown)
VH: CQSVEESGGRLVTPGTPLTLTCTVSGFSLSTYNMGWIRQAPGEGLEYIGTISSSTGNTYYATWAKGRFTISKTSSTTVDLKITNLTTEDTATYFCVRVNNMGDIWGPGTLVTVSL
VL: AIVMTQTPSSKSVAVGDTVTINCQASESVYKDNRLAWFQQKPGQAPKLLIYLASTLASGVPSRFKGSGSGTEFTLTISDVVCDDAATYYCGGYKDSLFDGFPFGGGTEVVVKR
- EC50 [1]: 0.0076 nM
- HepG2 Cell binding (Fold ratio) [1]: 694 fold
- Kd [2]: ~0.49 nM
- RuMax [2]: 2
- koff [2]: 0.00039 s⁻¹

B3: anti-human GPC3 IgG1 antibody clone 5 (antibody, V domains shown)
VH: CQSVEESGGRLVTPGTPLTLTCTVSGFSLSTYNMGWVRQAPGEGLEYIGTISSSTGNTYYATWAKGRFTISKTSSTTVDLKITNLTTEDTATYFCVRVNNMGDIWGPGTLVTVSL
VL: AIVMTQTPSSKSVAVGDTVTINCQASESVYKDNRLAWFQQKPGQPPKLLIYLASTLASGVPSRFKGSGSGTEFTLTISDVVCDDAATYYCGGYKDSLFDGFPFGGGTEVVVKR
- binding result [3]: binds
- binding result [4]: binds

B4: anti-human GPC3 IgG1 antibody clone 49 (antibody, V domains shown)
VH: CQSVEESGGRLVTPGTPLTLTCTVSGFSLSTYWMTWVRQAPGKGLEWIGIINPSGSAYYASWAKGRFTISKTSSATVDLKMTSLTAADTATYFCAGGGGMDPWGPGTLVTVSS
VL: DPVLTQTPSSVSAAVGGTVSISCQSSQSIVKNYLSWFQQKPGQPPKRLIYKASTLPSGVPSRFKGSGSGTEFTLTISDLECDDAATYYCAASYSDNIYVFGGGTEVVVKR
- EC50 [1]: 0.012 nM
- HepG2 Cell binding (Fold ratio) [1]: 115 fold
- Kd [2]: 0.9 nM
- RuMax [2]: 1.7
- koff [2]: 0.0017 s⁻¹

B5: anti-human GPC3 IgG1 antibody clone 8 (antibody, V domains shown)
VH: CQSVEESGGRLVTPGTALTLTCTVSGFSLSTYWMTWVRQAPGKGLEWIGIINPGGSAYYASWAKGRFTISKTSSATVDLKMTSLTAADTATYFCAGGGGMDPWGPGTLVTVSS
VL: DPVLTQTPSSVSAAVGGTVSISCQSSQSIIKNYLSWFQHKPGQPPKRLIYRASTLPSGVPSRFEGSGSGTEFTLTISDLECDDAATYYCAASYSDNIYVFGGGTEVVVKR
- EC50 [1]: 0.012 nM
- HepG2 Cell binding (Fold ratio) [1]: 79.5 fold
- Kd [2]: 0.1 nM
- RuMax [2]: 3.7
- koff [2]: 0.00042 s⁻¹

B6: anti-human GPC3 IgG1 antibody clone 12 (antibody, V domains shown)
VH: CQSVEESGGRLVTPGTPLTLTCTVSGFSLSTYWMTWVRQAPGKGLEWIGIINPSGSAFYASWAKGRFTISKTSSATVDLKMTSLTAADTATYFCAGGGGMDPWGPGTLVTVSS
VL: DPVLTQTPSSVSAAVGGTVSISCQSSQSIVKNYLSWFQQKPGQPPKRLIYKASTLPSGVPSRFKGSGSGTEFTLTISDLECDDAATYYCAASYSDNIYVFGGGTEVVVKR
- EC50 [1]: 0.014 nM
- HepG2 Cell binding (Fold ratio) [1]: 125 fold
- Kd [2]: 0.6 nM
- RuMax [2]: 1.4
- koff [2]: 0.0016 s⁻¹

B7: anti-human GPC3 IgG1 antibody clone 40 (antibody, V domains shown)
VH: CQSVEESGGRLVTPGTPLTLTCTVSGFSLSTYWMTWVRQAPGKGLEWIGIISPAGSAYYASWAKGRFTISKTSSATVDLKMTSLTTADTATYFCAGGGGMDPWGPGTLVTVSS
VL: DPVLTQTPSSVSAAVGGTVSISCQSSQSIVKNYLSWFQQKPGQPPKRLIYKASTLPSGVPSRFKGSGSGTEFTLTISDLECDDAATYYCAASYSDNIYVFGGGTEVVVKR
notes: also called parental clone 40; chimeric anti-GPC3 clone 40
- EC50 [1]: 0.013 nM
- HepG2 Cell binding (Fold ratio) [1]: 104 fold
- Kd [2]: 0.6 nM
- RuMax [2]: 2.4
- koff [2]: 0.0018 s⁻¹

B8: anti-human GPC3 IgG1 antibody clone 41 (antibody, V domains shown)
VH: CQSVEESGGRLVTPGTALTLTCTVSGFSLSTYWMTWVRQAPGKGLEWIGIINPGGSAYYASWAKGRFTISKASSATVDLKMTSLTAADTATYFCAGGGGMDPWGPGTLVTVSS
VL: DPVLTQTPSSVSAAVGGTVSISCQSSQSIIKNYLSWFQHKPGQPPKRLIYRASTLPSGVPSRFEGSGSGTEFTLTINDLECDDAATYYCAASYSDNIYVFGGGTEVVVKR
- EC50 [1]: 0.014 nM
- HepG2 Cell binding (Fold ratio) [1]: 116 fold
- Kd [2]: 1.3 nM
- RuMax [2]: 1.49
- koff [2]: 0.0032 s⁻¹

B9: anti-human GPC3 IgG1 antibody clone 22 (antibody, V domains shown)
VH: CQSVEESGGRLVTPGTPLTLTCTVSGFSLSTYWMTWVRQAPGKGLEWIGIINPTGRAYYASWAKGRFTISKTSSATVDLKMTSLTAADTATYFCAGGGGMDPWGPGTLVTVSS
VL: DPVLTQTPSSVSAAVGGTVTINCQSSQSVYSNYLSWFQKKPGQPPKRLIYKASTLVSGVPSRFVGSGSGTEFTLTISDLECDDAATYYCAASYSGNIYVFGGGTEVVVKR
- EC50 [1]: 0.013 nM
- HepG2 Cell binding (Fold ratio) [1]: 121 fold
- Kd [2]: 1.6 nM
- RuMax [2]: 2.9
- koff [2]: 0.00052 s⁻¹

B10: anti-human GPC3 IgG1 antibody clone 121 (antibody, V domains shown)
VH: CQSVEESGGRLVTPGTPLTLTCTVSGFSLSTYWMTWVRQAPGKGLEWIGIINPAGSAYYASWAKGRFTISKTSSATVDLKMTSLTAVDTATYFCAGGGGMDPWGPGTLVTVSS
VL: DPVLTQTPSSVSAAVGGTVTISCQSSQNIIKDYLSWFQQKPGQPPKRLIYKTSTLPSGVPSRFKGSGSGTEFTLTISDLECDDAATYYCAASYSGNIYVFGGGTEVVVKR
- EC50 [1]: 0.0061 nM
- HepG2 Cell binding (Fold ratio) [1]: 74.6 fold
- Kd [2]: 0.5 nM
- RuMax [2]: 2
- koff [2]: 0.0015 s⁻¹

B11: anti-human GPC3 IgG1 antibody clone 122 (antibody)
heavy: not shown
light: DPVLTQTPSSVSAAVGGTVTINCQSSQNVYNNNRLAWYQQKPGQPPKLLIYFASKLASGVPSRFKGNGSGTQFTLTISGVQCDDAATYYCAGGYNSIVDNGFGGGTEVVVERTVAAPSVFIFPPSDEQLKSGTASVVCLLNNFYPREAKVQWKVDNALQSGNSQESVTEQDSKDSTYSLSSTLTLSKADYEKHKVYACEVTHQGLSSPVTKSFNRGECTS
- EC50 [1]: 0.0053 nM
- HepG2 Cell binding (Fold ratio) [1]: 129 fold
- Kd [2]: 0.2 nM
- RuMax [2]: 17.3
- koff [2]: 0.0018 s⁻¹

B12: anti-human GPC3 IgG1 antibody clone 182 (antibody)
heavy: not shown
light: DPVLTQTPSSVSAAVGGTVTINCQSSQNVYNNNRLAWYQQKPGQPPKLLIYFASKLASGVPSRFKGNGSGTQFTLTISGVQCDDAATYYCAGGYNSIVDNGFGAGTEVVVKRTVAAPSVFIFPPSDEQLKSGTASVVCLLNNFYPREAKVQWKVDNALQSGNSQESVTEQDSKDSTYSLSSTLTLSKADYEKHKVYACEVTHQGLSSPVTKSFNRGECTS
- Kd [2]: 0.02 nM
- RuMax [2]: 24.3
- koff [2]: 0.0019 s⁻¹

B13: anti-human GPC3 IgG1 antibody clone 17 (antibody, V domains shown)
VH: CQSVEESGGRLVTPGTPLTLTCTVSGFSLSTYDMSWVRQAPGKGLEYIGWINSGGSPYYARWAKGRFTISKTSSTTVDLKMTSPTTEDTATYFCARHRSGYYGDIWGPGTLVTVSL
VL: DPVLTQTPSSVSAAVGDTVSINCQSSQNVYKNRLAWYQQKPGQPPKLLIYGASTLASGVPSRFKGSGSGTQFTLTISDLECDDAATYYCAGGYSTIVDNTFGGGTEVVVKR
- EC50 [1]: 0.043 nM
- HepG2 Cell binding (Fold ratio) [1]: 39.9 fold
- Kd [2]: 0.2 nM
- RuMax [2]: 10.7
- koff [2]: 0.0037 s⁻¹
